The text below walks through data of patent US20130131322A1 (MEDICAL AND BIOLOGICAL LABORATORIES, published 2013).

Experiment [1] has as its target commercially-available secreted TGF-α biosynthesized by Escherichia coli (R&D systems Inc.) (human, UniProt P01135 40-89). As to the kind of experiment: cell-based or functional assay.
The target of experiment [2] is T1, G79A-substituted human TGF-α expressed on 293T cells (human, UniProt P01135 24-160).
T1 construct: Made from pDIG-TGF-α (positions 1 to 160); also called G79A substitution analog; G79A-substituted TGF-α
As to the kind of experiment: flow cytometry on 293T cells. The procedure: (§1) After washed with a wash buffer twice, the cells were allowed to react with a 200-fold diluted PE-labeled anti-mouse IgG antibody (MBL CO., LTD.) at 4° C. for 60 minutes.
On the technique in general: In flow cytometry, cells or beads pass a laser one at a time.

The target of experiment [3] is T2, H74A-substituted human TGF-α expressed on 293T cells (human, UniProt P01135 24-160).
T2 construct: Made from pDIG-TGF-α (positions 1 to 160); also called H74A substitution analog
As to the kind of experiment: flow cytometry on 293T cells. The procedure: as §1

Another experiment deals with T3, TGF-α-hFc (human, UniProt P01135 40-89).
T3 construct: not shown: Fc portion of human immunoglobulin G1, fused on the C-terminal side
As to the kind of experiment: solid phase ELISA, TGFα-hFc on plate. A general note: An ELISA detects its analyte on a solid surface through an enzyme-linked reagent.

A further experiment addresses T4, proTGF-α-hFc (human, UniProt P01135 24-89).
T4 construct: not shown: Fc portion of human immunoglobulin G1, fused on the C-terminal side
In words: solid phase ELISA, proTGFα-hFc on plate.

Where only a bound is given, the exact number is not on record here.

commercially-available secreted TGF-α biosynthesized by Escherichia coli (R&D systems Inc.), sequence (P01135 40-89): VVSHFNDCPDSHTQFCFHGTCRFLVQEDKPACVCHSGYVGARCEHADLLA
T3 sequence (P01135 40-89 limits assumed): as the sequence (P01135 40-89) above

B1: MBL018-1 (antibody, mouse IgG1, V domains shown)
VH: EVQLQQSGTVLTRPGASVKMSCKASGYTFTNFWIHWVKQRPGQGLDWIGAIYPGNTNTDYNQKFQGKAKLTAVSSASTAYMELSSLTNEDSAVYYCTRGGAMDYWGQGTSVTVSS
VL: IVMTQTPKLLPVSAGDRVTMTCKASQSVDNSVAWYQQKPGQSPKLLIFYASNHYTGVPDRFTASGSGTDFTFTISSVQVEDLAVYFCQQHFSSPRTFGGGTKLEIR
For B1, the “inhibition of EGFR tyrosine phosphorylation (P-Tyr1173) in A431 cells, antibody at 10 µg/mL” value in experiment [1] was not below 70%. Moreover, the binding result in experiment [2] is “no binding (tested: 5 µg/mL)”; in experiment [3], “binds”. The “OD (solid phase ELISA)” value with TGF-α-hFc was found to be 0.703 OD; with proTGF-α-hFc it was 1.51 OD.
